The text below walks through data of PMC3001090.

The data set deals with T1, Rv1495 (MazF homolog) (Mycobacterium tuberculosis, UniProt P9WII5 1-105).
T1 sequence: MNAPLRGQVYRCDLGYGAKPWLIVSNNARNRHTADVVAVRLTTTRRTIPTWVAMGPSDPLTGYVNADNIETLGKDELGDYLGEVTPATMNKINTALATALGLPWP
Description: EMSA.

For the molecule CAGTGAGCGAGCTTCCGCTTGACATCCCAATA (ssDNA) [32-mer TopA substrate oligonucleotide], the binding result is on record as “no binding”.
